The nature of the series: Detection of transglycosidase activity (HPLC, MS of transglycosylation product). It counts as biochemical. Particulars: donor 2 mM NGA2-Asn-Fmoc, acceptor 50 mM p-nitrophenylglucose, pH 6.0, 30° C. On the procedure:
The transglycosidase activity of Endo-Om was detected by incubating the reaction solution containing a biantennary complex type sugar chain as the substrate, acceptor molecules (p-nitrophenylglucose), and an Endo-Om partially purified enzyme solution at 30° C. for 3 hours, and then subjecting it to HPLC after the completion of the reaction; a new peak different from the hydrolysate was detected, and was identified by MS analysis to be a transglycosylation product including an acceptor molecule to which a biantennary complex type sugar chain is added (FIG. 7).
The transglycosidase activity of Endo-Cp was detected by incubating the reaction solution containing a biantennary complex type sugar chain as the substrate, acceptor molecules (p-nitrophenylglucose), and an Endo-Cp partially purified enzyme solution at 30° C. for 3 hours, and then subjecting it to HPLC after the completion of the reaction; a new peak different from the hydrolysate was detected, and was identified by MS analysis to be a transglycosylation product including an acceptor molecule to which a biantennary complex type sugar chain is added (FIG. 11).
The transglycosidase activity of Endo-Pa was detected by incubating the reaction solution containing a biantennary complex type sugar chain as the substrate, acceptor molecules (p-nitrophenylglucose), and an Endo-Pa partially purified enzyme solution at 30° C. for 16 hours, and then subjecting it to HPLC after the completion of the reaction; a new peak different from the hydrolysate was detected, and was identified by MS analysis to be a transglycosylation product including an acceptor molecule to which a biantennary complex type sugar chain is added (FIG. 15).
The transglycosidase activity of Endo-Om was detected as follows. The reaction solution containing a sodium acetate buffer at a final concentration of 100 mM (pH 6.0), 2 mM NGA2-Asn-Fmoc, 50 mM acceptor molecule (p-nitrophenylglucose), and an Endo-Om purified enzyme solution (total volume: 10 μl) was incubated at 30° C. for 3 hours, and heated at 95° C. for 5 minutes to stop the enzyme reaction. The total amount of the reaction solution was subjected to HPLC by the method described in Example 4, and detection was carried out using a UV detector (274 nm). In addition, the peak corresponding to a transglycosylation product was collected, freeze-dried, and then redissolved in Milli-Q water and subjected to mass spectrometry using MALDI-QIT-TOFMS (AXIMA-QIT, Shimadzu Co., Ltd.), thereby identifying the transglycosylation product.
The transglycosidase activity of Endo-Cp was detected as follows. […]
The transglycosidase activity of Endo-Pa was detected as follows. […]

Entries after “also recorded” stand apart in the source; their conditions may differ.

For 4 molecules, Transglycosidase activity results are on record in US9371519B2, “Complex type sugar chain hydrolase” (National Institute of Advanced Industrial Science and …, priority 2011, dated 2016).

B1: Endo-Om: endo-β-N-acetylglucosaminidase from methylotrophic yeast Ogataea minuta IFO10746, amino acid sequence SEQ ID NO. 1, 772 amino acids (protein, listed as Ogataea minuta)
chain: MAQSQLLGGAVRPVFFDKLEELRRWHTQSANLSRESELDSLNVATEPFSSYERAQTGSGSRSSEPVPGDKEDPPIKLMVCHDFKGGYQDYEDAQPLGYFPHPTGSRYFLQYPQLIDQFVYFSHHRVTVPPVNWINFCHRNGIKCFGTVIFEGNASKDFEELDRLVSRDEKGDFVFVDALIKLAAHYGFDGYLLNIETTFSNTKIAADLEPFAEQLKSGLHCLDSKNELIWYDSYVFPANKVSYTNGVTESNYNFFSLSDAFFSNYWWNIKNLQENIKNVGVLGVQKKIYVGYDVWGRGTLVGKGGFDSSLACKMIAKFKSNVALFAPAWTYESLGPKDFNQNDARFWIGLFENESSISSTVPPHSSAVYKINESSFIFYTNFSSGEGNRFFSKGSEVYRKNWVNGSLQFDLPIDLHRKDKNGLQWALDKSDAFHGGACLEIKYSEIKDENGYQIFNNQMVSDFTLFNFTKECHFPTVNVKVTYKLNHKTKSTFKIKIKYIIERRFRSVQTVRTGYLTIPLLSTSGKWFTVEESFQINLQTSHEYIVLESAHVTYDEDRSADSFFRSYIVEDSAITSVIDNEEYEKLINSEIYNDDEDEDWILVPSDVSISSSESQSNDSKTQYLGRKLFGNKSTPKTRTLEGTAPLLRIGEFAIISANNYPSSNFLAVTSVKSIESSRLEGDSLVLLNWQVGEGHQKGVCYYIIYVNGAVVGLSVAPKFIYQDTELASENSASARSNYKKSGLGSSSDRKSKVRVDSVDKLGNVFTGSEVWV
With B1, the Transglycosidase activity entry (3 hours) is “has activity for transferring the cleaved sugar chain to any acceptor molecule; also recorded: significant transglycosidase activity was confirmed”.

B2: Endo-Zr: endo-β-N-acetylglucosaminidase from Zygosaccharomyces rouxii ATCC2623, amino acid sequence SEQ ID NO. 13, 639 amino acids (protein, listed as Zygosaccharomyces rouxii)
chain: MKRINQVPGKPEITSLYFDDLNSLQRWFDKGFMDSRDLSNVPKERYSNYVKFEKDSIITIPNLSARKTEIIVCHDFKGGYQSGHDLYPNGQYGTESCKPYSLRYPEIVDKFVYFSHHCVTIPPSPWTNYLHRHSIPVLGTLILEHYPHNGELFKKNAKGEFLYVKYLVELCRKFHFEGWLINFETVFGNNSKQVIPFLRELTARVECEIYGGSVIWYDAFTTFSNKPSHQNEVNLFNYDAYENSSQFMTNYMWDSHNVGNSLRNVGALGMHSHVALGVDVWGRNMQVCRGGFESNIAIYYAKRFGTNAVIFAPGWTYENFGEDQFYEKDDIFWGNIKSTLQLDSYSDSQLSSWFVSESKKTRYFTTFFSTGSGNFFNLNGRRISNDNWVQLGLSTPFPVNSHSYLSFKDSFVGGSCLALPLSPMENGKLHLFRFEQFIKDQQKTSDSEIRVKLSYKSLGALPPVKLVIKCFVIRRGKRSKTILKVDDVSLVLPLSHSACQTAQGSTKWAVVEQIVPLPSLESRFLEEYYVEDAHLEWTMDNNHDEWLMVPERTEDLDCKLLIGSLCLEIGPHEDNNKRQIVRNGPQLSWQDNESSFMWLKLQDGKLDSVLFTPTTKVNGKQPTILECGRNGTLKFVVKK
For the molecule B2, the Transglycosidase activity entry (16 hours) was “not detected; also recorded: transglycosidase activity was not confirmed”.

B3: Endo-Pa: endo-β-N-acetylglucosaminidase from Pichia anomala ATCC36904, amino acid sequence SEQ ID NO. 9, 656 amino acids (protein, listed as Pichia anomala)
chain: MQHDHAAIKFEEDSISSQRFSSLDEVEKWYNTKNRSPLDDLRIPRESLSHYNRFRDNNDEIKVLVCHDFKGNYQEGEDENPLGYFPHSSGQHYFIQFPSLVDLFIFFSHYKIAVPPVSWINSLHRQGIPVLGTLIFEGTDVSESDKLLEKNENGDFKYLEILCELVRHYGFDGWLVNMESHFSSVAKAQDLLLFDEALRSTLHLKVPGSKLIWYDSLITQKNRVFYQNAVNEWNYDHFSTSDLFFTNYWWNEEDLKRNILNIGLQGVKQKLFVGVDIWGRGSRIGNGGFESGLAINYLKRYSTNVALFAPAWTYENFEEDQFLIKDRKFWIGDQTSDETGGSVATYVSHYTTPVYVKDQNVKFYTNFSVGEGTKYRVFAHTVFKNNWVNGNLQLPTPIIDNEKRIDIYYKESFNGGSSLKVTQRNSILNDGKSNILQLFSFKNDIHSNNLNVSVSFKYLSEIPLNSTFQLEIKFYIERRYRSVTRVRDGTFKLPLAFSNKNWKYIETSFALPRLQIREHFVLEGLQIRWVDNVDELSSSIGTSGDFTESWIIVPQNSDPNAVYELLIGDLLVEGIKTANGNIDAVTKLSRKITLDSRSILATWKDDTEVLYWIIYVNAKFLGIAHKSLWRVQRGDKLRVDVFTRSGKLVKGEDIFI
Consider B3, for which, where the note is “16 hours”, the Transglycosidase activity entry is reported as “significant transglycosidase activity was confirmed; also recorded: has activity for transferring the cleaved sugar chain to any acceptor molecule”.

B4: Endo-Cp: endo-β-N-acetylglucosaminidase from Candida parapolymorpha DL-1 ATCC26012, amino acid sequence SEQ ID NO. 5, 745 amino acids (protein, listed as Candida parapolymorpha)
chain: MPRNTAKHSSLPQTNLPLSSLESSFFDSLDELANWERRIHEKSFELDELNKPTEKLAHYTRARQQSTSEDVKLLVCHDLKGGYQVNEDEDPLGYFPHPDGQHYFLQYPQLVDKFVYFSHHRVSIPPVSWINVCHRNAIKCLGTVIFEGNTYRDFEEADKLLTKQDGEYVFVRCLVALVEYFQFDGYLFNIETRFSNTRIASLLEPFLEQLRAELHVRNPSTELIWYDSYIYPENRVLYKNGVTEANYNFFSCCDSFFTNYWWNVKHLQDNIKNVGVLGSRLKVYAGYDVWGRGTMIGKGGYDSALACQMIKKYRSNVALFAPAWTYEYLARKDFTQNDTRFWIGLFDGESSMATTFKPYSSPLYKINDSNFVFYTNFGSGEGCAFYECGEKVYRDNWVNGSLQMEIPYAIHTRNKNGIQWTLSKEDSFHGGSCVEIKYNEVVDDKGYQVFNNQTINSFSLFSFVQDCSFPTVNVKLTYKLNHKTKSFFKLKIGYYIERRYRTVQKVRSGCLVVPLLSTNDQWFTIEEPFHVSLQNSHEFIVLDSATIFYEETEDPFMRAHVVEDQSTSSVIDNEEYEKLMNSEIYFDDEDEDWILVPSDISMESTDNGGRENHTWKVISNQIRKKHPKSHPSTSPVLKLGELAIINANDYPSDSFFKLMPVNSIDVRRWEGKILLIWKTNQDSVLYHLIFVDDVFQGISLVSKFVFEDQAVDEKSFKTKSGGSTKVRIDTVNRLGILVKGTDM
B4: the Transglycosidase activity result (3 hours) is “significant transglycosidase activity was confirmed; also recorded: has activity for transferring the cleaved sugar chain to any acceptor molecule”.
